Reference: US20020045591A1, “Methods and therapeutic compositions for treating cancer” (priority 1998, published 2002)

Key:
SW480 cells = assay: Double immunofluorescence of β-catenin in SW480 cells (Example 2); format: cell-based, human; details: transfected SW480 cells, FIG. 19B
Excerpt: (§1) Immunofluorescence Microscopy: Cells cultured on glass coverslips were fixed with 3.7% paraformaldehyde in PBS and permeabilized with 0.5% Triton X-100. Monoclonal antibodies against human plakoglobin (11E4), β-catenin (5H10), the COOH terminus of β-catenin (6F9) and α-catenin (1G5) were described and kindly provided by Drs. M. Wheelock and K. Johnson (Univ. Toledo, Ohio). The secondary antibody was FITC- or Cy3-labeled goat anti mouse IgG (Jackson ImmunoResearch Laboratories, West Grove, Pa.). Polyclonal antiserum against β-catenin, monoclonal antibody against pan cadherin (CH-19), vinculin ([…]) and α-actinin (BM75.2) were from Sigma (Holon, Israel). Monoclonal antibodies against the splicing factor SC35 and the HA epitope were kindly provided by Dr. D. Helfman (CSH Laboratory, N.Y.). Polyclonal rabbit antibody against the VSV-G epitope was a gift from Dr. JC Perriard (ETH, Zurich, Switzerland). FITC-labeled goat anti-rabbit IgG antibody was from Cappel/ICN. Monoclonal antibody against LEF-1 was kindly provided by Dr. R. Grosschedl (Univ. Calif. San Francisco, Calif.). […] Images of the fluorescent cells were recorded with a cooled, scientific grade CCD camera (Photometrics, Tucson, Ariz.). Integrated fluorescent intensities in transfected and nontransfected cells were determined, after the background was subtracted.

[1] = system: β-catenin-dependent transactivation; assay: LEF-1 consensus luciferase transactivation in SW480 cells (Example 2); format: cell-based, human; details: co-transfection, FIG. 19A
Experimental: (§2) Cell Culture and Transfections: Canine kidney epithelial cells MDCK, human fibrosarcoma HT1080, 293-T human embryonic kidney cells, Balb/C mouse 3T3 and human colon carcinoma SW480 cell lines were cultured in Dulbecco's modified Eagle's medium supplemented with 10% calf serum (Gibco, Grand Island, N.Y.) at 37° C. in the presence of 7% CO2. The human renal carcinoma cell line KTCTL60 was grown in RPMI medium and 10% calf serum. Cells were transiently transfected with the cDNA constructs described below, using Ca^2+-phosphate or lipofectamine (Gibco) and the expression of the transgene was assessed between 24 and 48 hours after transfection. In some experiments, the expression of the stably transfected NH2 terminus-deleted β-catenin (Δ57) was enhanced in HT1080 cells by overnight treatment with 2 mM sodium butyrate.
(§3) A plasmid encoding β-galactosidase (0.5 μg) was cotransfected to enable normalization for transfection efficiency. The relevant plasmid expressing catenin constructs (4.5 μg) was co-transfected with the reporter, or an empty expression vector was included. After 24-48 hours expression of the reporter (luciferase) and the control (β-galactosidase) genes were determined using enzyme assay systems from Promega (Madison, Wis.).

endogenous β-catenin = assay: Double immunofluorescence of endogenous β-catenin in transfected cells; format: cell-based; details: FIG. 18C
Excerpt: as §1

[2] = system: LEF-1-driven transcription; assay: LEF-1 consensus (TOPFLASH) transactivation in 293 cells; format: cell-based, human; details: FIG. 18B
Experimental: as §2, §3

| Molecule | effect on nuclear localization of β-catenin (SW480 cells) | effect on constitutive LEF-1 driven transcription [1] | nuclear translocation of endogenous β-catenin (endogenous β-catenin) | LEF-1-driven transcription, fold lower extent than β-catenin [2] [fold] |
| --- | --- | --- | --- | --- |
| α-catenin: HA-tagged chicken α-catenin in the pCGN vector (protein, left off: small tags and cut ends, HA-tagged chicken α-catenin in the pCGN vector) TAVTAGNVNFRWDPKSLEIRTLAVERLLEPLVTQVTTLVNTSNKGPSNKKRGRSKKAHVLAASVEQATENFLDKGDKIAKESQFLKEELVAAVEDVRKQGDLMKSASGEFADDPCSSVKRGNMVRAARALLSAVTRLLILADMADVYKLLVQLKVVEEGILKLRNAGTEQDLGIQYKALKPEVDKLNIMAAKRQQELKDVGHRDQMAAARGILQKNVPILYTASQACLQHFDVAAYKANRDLIYKQLQQAVTGISNAAQATASDDAAQQQGGGGELAYALNNFDKQIIVDPSTFSEQRFRPSLEERLESIISGAALMADSSCTRDDRRERIVAECNAVRQALQDLLSEYMGNAGRKERSDALNSAIDKMTKKTRDLRRQLRKAVMDHVSDSFLETNVPLLVLIEAARNGNEKEVKEYTQVFREHANKLIEVANLACSISNNEEGVKLVRMSASQLEALCPQVINAALALAAKPQSKLAQENMELFKEQWEKQVRVLTDAVDDITSIDDFLAVSENHILEDVNKCVIALQEKDVDGLDRTAGAIRGRAARVIHVVTSEMDNYEPGVYTEKVLEATKLLSNTVMPRFTEQVEAAVEALSSDPAQPMDENEFIDRSRLVYDGIRDIRKAVLMIRTPEELDDSDFETEDFDVRSKTSIQTEDDQLIAGQSARAIMAQLPQEQKAKIAEAVASFQEEKSKLDAEVSKWDDSGNDIIVLAKQMCMIMMEMTDFTRGKGPLKNTSDVISAAKKIAEAGSRMDKLGRTIADHCPDSASKQDLLAYLQRIALYCHQLNICSKVKAEVQNLGGELVVSGVDSAMSLIQAAKNLMNAVVQTVKASYVASTKYQKSQGMASLNLPAVSWKMKAPEKKPLVKREKQDETQTKIKRASQKKHVNPVQALSEFKAMESI | sequestered to the cytoplasm | effectively blocked | – | – |
| α-catenin Δβ: HA-tagged mutant α-catenin lacking the β-catenin binding site (amino acids 118-166) (protein, left off: small tags and cut ends) MTAVTAGNVNFRWDPKSLEIRTLAVERLLEPLVTQVTTLVNTSNKGPSNKKRGRSKKAHVLAASVEQATENFLDKGDKIAKESQFLKEELVAAVEDVRKQGDLMKSASGEFADDPCSAGTEQDLGIQYKALKPEVDKLNIMAAKRQQELKDVGHRDQMAAARGILQKNVPILYTASQACLQHFDVAAYKANRDLIYKQLQQAVTGISNAAQATASDDAAQQQGGGGELAYALNNFDKQIIVDPSTFSEQRFRPSLEERLESIISGAALMADSSCTRDDRRERIVAECNAVRQALQDLLSEYMGNAGRKERSDALNSAIDKMTKKTRDLRRQLRKAVMDHVSDSFLETNVPLLVLIEAARNGNEKEVKEYTQVFREHANKLIEVANLACSISNNEEGVKLVRMSASQLEALCPQVINAALALAAKPQSKLAQENMELFKEQWEKQVRVLTDAVDDITSIDDFLAVSENHILEDVNKCVIALQEKDVDGLDRTAGAIRGRAARVIHVVTSEMDNYEPGVYTEKVLEATKLLSNTVMPRFTEQVEAAVEALSSDPAQPMDENEFIDRSRLVYDGIRDIRKAVLMIRTPEELDDSDFETEDFDVRSKTSIQTEDDQLIAGQSARAIMAQLPQEQKAKIAEAVASFQEEKSKLDAEVSKWDDSGNDIIVLAKQMCMIMMEMTDFTRGKGPLKNTSDVISAAKKIAEAGSRMDKLGRTIADHCPDSASKQDLLAYLQRIALYCHQLNICSKVKAEVQNLGGELVVSGVDSAMSLIQAAKNLMNAVVQTVKASYVASTKYQKSQGMASLNLPAVSWKMKAPEKKPLVKREKQDETQTKIKRASQKKHVNPVQALSEFKAMESI | did not show this activity | abolished the transactivation inhibition capacity | – | – |
| plakoglobin: HA-tagged human plakoglobin (protein, UniProt P14923 1-745, looked up, HA tag) Junction plakoglobin: MEVMNLMEQPIKVTEWQQTYTYDSGIHSGANTCVPSVSSKGIMEEDEACGRQYTLKKTTTYTQGVPPSQGDLEYQMSTTARAKRVREAMCPGVSGEDSSLLLATQVEGQATNLQRLAEPSQLLKSAIVHLINYQDDAELATRALPELTKLLNDEDPVVVTKAAMIVNQLSKKEASRRALMGSPQLVAAVVRTMQNTSDLDTARCTTSILHNLSHHREGLLAIFKSGGIPALVRMLSSPVESVLFYAITTLHNLLLYQEGAKMAVRLADGLQKMVPLLNKNNPKFLAITTDCLQLLAYGNQESKLIILANGGPQALVQIMRNYSYEKLLWTTSRVLKVLSVCPSNKPAIVEAGGMQALGKHLTSNSPRLVQNCLWTLRNLSDVATKQEGLESVLKILVNQLSVDDVNVLTCATGTLSNLTCNNSKNKTLVTQNSGVEALIHAILRAGDKDDITEPAVCALRHLTSRHPEAEMAQNSVRLNYGIPAIVKLLNQPNQWPLVKATIGLIRNLALCPANHAPLQEAAVIPRLVQLLVKAHQDAQRHVAAGTQQPYTDGVRMEEIVEGCTGALHILARDPMNRMEIFRLNTIPLFVQLLYSSVENIQRVAAGVLCELAQDKEAADAIDAEGASAPLMELLHSRNEGTATYAAAVLFRISEDKNPDYRKRVSVELTNSLFKHDPAAWEAAQSMIPINEPYGDDMDATYRPMYSSDVPLDPLEMHMDMDGDYPIDTYSDGLRPPYPTADHMLA | – | – | resulted in nuclear translocation of endogenous β-catenin | 3 to 4 |
